Blank lines part the entries; values can stand above or below the molecule they belong to.
Experiments:
[1] = system: human colonic β3Gal-transferase activity; settings: acceptor substrate; read-out: apparent Km, human colonic β3Gal-T activity; cited from earlier work
β3Gal-T1 = target: T1, β3Gal-T1 (Homo sapiens, UniProt Q9Y5Z6); assay: Galactosyltransferase assay with glycoprotein acceptors, β3Gal-T1; assay type: biochemical; settings: for β3Gal-T1 activity with glycoprotein acceptor: 0.5 mg glycoprotein, 150 μM UDP-Gal
T1 construct: The kinetic properties were determined with partially purified, secreted forms of the enzymes; made in house; host or cells: baculovirus; Sf9 / High Five insect cells, medium
T1 sequence (Q9Y5Z6 27-326 limits assumed): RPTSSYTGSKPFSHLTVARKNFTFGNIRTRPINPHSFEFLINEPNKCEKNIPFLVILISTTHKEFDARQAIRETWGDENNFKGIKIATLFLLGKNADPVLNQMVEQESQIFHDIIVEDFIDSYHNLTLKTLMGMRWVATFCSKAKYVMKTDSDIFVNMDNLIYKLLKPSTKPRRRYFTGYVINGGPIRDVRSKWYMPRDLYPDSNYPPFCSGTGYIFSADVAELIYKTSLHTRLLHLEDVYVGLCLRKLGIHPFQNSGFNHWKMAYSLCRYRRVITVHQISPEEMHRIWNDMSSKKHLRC
Description: (§1) The kinetic properties were determined with partially purified, secreted forms of the enzymes. Semipurification of enzymes from serum-free medium of infected High-Five™ cells was performed by sequential Amberlite, DEAE-Sephacel and 5-Sepharose chromatography as described previously (Wandall, H. H., Hassan, H., Mirgorodskaya, E., et al. Substrate specificities of three. members of the human UDP-N-acetyl-alpha-D-galactosamine:Polypeptide Nacetylgalactosaminyltransferase family, GalNAc-T1, -T2, and -T3. J. Biol. Chem. 272:23503-23514, 1997). Comparisons of enzymes were performed relatively to the activity obtained with βGlcNAc-Bz1 (Tables II and III). Full length enzymes were assayed with 1% Triton CF54 homogenates of washed cells. Enzyme assays were performed in 50 μl total reaction mixtures containing 25 mM Cacodylate (pH 7.5), 10 mM MnCl2, 0.25% Triton X-100, 100 μM UDP-[^14C]-Gal (2,600 cpm/nmol) (Amersham), and varying concentrations of acceptor substrates (Sigma) (see Table I for structures). Reaction products were quantified by Dowex-1 chromatography. […] The transfer of Gal was evaluated after acid precipitation by filtration through Whatman GF/C glass fibre filters. […] Assays with glycolipid acceptors were conducted as previously described (Holmes, E. H. Characterization and membrane organization of beta 1-3- and beta 1-4-galactosyltransferases from human colonic adenocarcinoma cell lines Cob 205 and SW403: basis for preferential synthesis of type 1 chain lacto-series carbohydrate structures. Arch Biochem Biophys 270:630-646, 1989) in reaction mixtures containing 2.5 μmol HEPES buffer, pH 7.2, μmol MnCl2, 100 μg taurodeoxycholate or Triton CF-54, 20 μg acceptor glycolipid, 15 nmol UDP-[^14C]-galactose (13,000 cpm/nmol) and enzyme in a total volume of 100 μl. Conditions for incubation and product isolation were as previously described (Id.).

β3Gal-T2 = target: T2, β3Gal-T2 (Homo sapiens, UniProt O43825); assay: Galactosyltransferase assay with glycoprotein acceptors, β3Gal-T2; assay type: biochemical; settings: for β3Gal-T2 activity with glycoprotein acceptor: 0.5 mg glycoprotein, 150 μM UDP-Gal
T2 construct: The kinetic properties were determined with partially purified, secreted forms of the enzymes; made in house; host or cells: baculovirus; Sf9 / High Five insect cells, medium
T2 sequence (O43825 46-422 limits assumed): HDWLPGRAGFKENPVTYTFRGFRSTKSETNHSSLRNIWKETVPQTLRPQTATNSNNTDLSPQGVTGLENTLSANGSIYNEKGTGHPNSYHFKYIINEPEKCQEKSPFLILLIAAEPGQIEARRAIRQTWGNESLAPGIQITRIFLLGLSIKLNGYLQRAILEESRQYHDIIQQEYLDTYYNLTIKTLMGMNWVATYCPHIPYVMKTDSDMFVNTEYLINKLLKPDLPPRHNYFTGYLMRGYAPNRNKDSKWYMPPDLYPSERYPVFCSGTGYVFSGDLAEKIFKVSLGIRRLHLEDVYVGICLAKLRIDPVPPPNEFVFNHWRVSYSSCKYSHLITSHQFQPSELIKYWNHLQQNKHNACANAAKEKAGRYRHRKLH
Description: as §1

β3Gal-T5 [2] = target: T3, β3Gal-T5 (Homo sapiens, UniProt Q9Y2C3, M85T); assay: Galactosyltransferase assay with glycoprotein acceptors, β3Gal-T5; assay type: biochemical; settings: for β3Gal-T5 activity with glycoprotein acceptor: 0.5 mg glycoprotein, 150 μM UDP-Gal
T3 construct: designed to exclude the hydrophobic transmembrane segment and to encode amino acid residues 25-310; secretion signal of vector pAcGP67B (gp67); made in house; host or cells: baculovirus; Sf9 cells (media) and High Five cells (serum-free medium, partially purified)
T3 sequence (Q9Y2C3 25-310 M85T): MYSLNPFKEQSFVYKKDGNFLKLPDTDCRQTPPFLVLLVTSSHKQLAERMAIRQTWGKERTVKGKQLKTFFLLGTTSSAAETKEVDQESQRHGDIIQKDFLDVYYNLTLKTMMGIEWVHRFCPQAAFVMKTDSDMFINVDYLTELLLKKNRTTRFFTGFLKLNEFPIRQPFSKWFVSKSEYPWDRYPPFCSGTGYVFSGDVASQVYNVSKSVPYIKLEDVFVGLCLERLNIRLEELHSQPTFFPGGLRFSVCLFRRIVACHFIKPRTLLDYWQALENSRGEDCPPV
Description: as §1

β3Gal-T5 [3] = target: T3, β3Gal-T5; assay: Galactosyltransferase assay with glycolipid acceptors, β3Gal-T5; assay type: biochemical
Description: as §1

[4] = system: β3Gal-T activity from Colo205 cells; settings: acceptor substrate; cited from earlier work

β3Gal-T5 activity with glycolipid acceptor, Triton CF-54 (β3Gal-T5 [3]; 100 μg Triton CF-54/100 μl, 20 μg glycolipid): 3.6 µmol/h/mg | β3Gal-T5 activity with glycolipid acceptor, TDOC (β3Gal-T5 [3]; 100 μg taurodeoxycholate/100 μl, 20 μg glycolipid): 4.4 µmol/h/mg | Km (β3Gal-T5 [3]; in the presence taurodeoxycholate, based on data points at low concentrations (substrate inhibition), read-out: apparent Km of β3Gal-T5): ~2 µM
Molecule: GlcNAcβ1-3Galβ1-4Glcβ1-Cer [Lc3]
Km [4]: 13 µM

β3Gal-T1 ratio glycoprotein / β-D-GlcNAc-Bzl (β3Gal-T1): (0.0) | β3Gal-T1 activity with glycoprotein acceptor (β3Gal-T1): 0.0 mmol/min | β3Gal-T2 ratio glycoprotein / β-D-GlcNAc-Bzl (β3Gal-T2): (0.0) | β3Gal-T2 activity with glycoprotein acceptor (β3Gal-T2): 0.0 mmol/min | β3Gal-T5 ratio glycoprotein / β-D-GlcNAc-Bzl (β3Gal-T5 [2]): (0.0) | β3Gal-T5 activity with glycoprotein acceptor (β3Gal-T5 [2]): 0.0 mmol/min
Molecule: Orosomucoid: glycoprotein acceptor substrate

β3Gal-T1 ratio glycoprotein / β-D-GlcNAc-Bzl (β3Gal-T1): (0.0) | β3Gal-T1 activity with glycoprotein acceptor (β3Gal-T1): 0.0 mmol/min | β3Gal-T2 ratio glycoprotein / β-D-GlcNAc-Bzl (β3Gal-T2): (0.5) | β3Gal-T2 activity with glycoprotein acceptor (β3Gal-T2): 0.02 mmol/min | β3Gal-T5 ratio glycoprotein / β-D-GlcNAc-Bzl (β3Gal-T5 [2]): (0.0) | β3Gal-T5 activity with glycoprotein acceptor (β3Gal-T5 [2]): 0.0 mmol/min
B1: Hen egg albumin: glycoprotein acceptor substrate (protein, UniProt P01012 2-386, looked up)
Ovalbumin: GSIGAASMEFCFDVFKELKVHHANENIFYCPIAIMSALAMVYLGAKDSTRTQINKVVRFDKLPGFGDSIEAQCGTSVNVHSSLRDILNQITKPNDVYSFSLASRLYAEERYPILPEYLQCVKELYRGGLEPINFQTAADQARELINSWVESQTNGIIRNVLQPSSVDSQTAMVLVNAIVFKGLWEKAFKDEDTQAMPFRVTEQESKPVQMMYQIGLFRVASMASEKMKILELPFASGTMSMLVLLPDEVSGLEQLESIINFEKLTEWTSSNVMEERKIKVYLPRMKMEEKYNLTSVLMAMGITDVFSSSANLSGISSAESLKISQAVHAAHAEINEAGREVVGSAEAGVDAASVSEEFRADHPFLFCIKHIATNAVLFFGRCVSP

Continued, molecule first:

Molecule: CC(=O)N[C@H]1[C@H](O[C@H]2[C@@H](O)[C@@H](CO)O[C@@H](O[C@H]3[C@H](O)[C@@H](O)C(O)O[C@@H]3CO)[C@@H]2O)O[C@H](CO)[C@@H](O)[C@@H]1O (stereo partly drawn) [β-D-GlcNAc(1-3)-D-β-Gal(1-4)-D-β-Glc]
Km [1]: 2900 µM

Molecule: Asialo-agalacto-fetuin: glycoprotein acceptor substrate
β3Gal-T1 ratio glycoprotein / β-D-GlcNAc-Bzl (β3Gal-T1): (0.3) | β3Gal-T1 activity with glycoprotein acceptor (β3Gal-T1): 0.01 mmol/min | β3Gal-T2 ratio glycoprotein / β-D-GlcNAc-Bzl (β3Gal-T2): (1.8) | β3Gal-T2 activity with glycoprotein acceptor (β3Gal-T2): 0.07 mmol/min | β3Gal-T5 ratio glycoprotein / β-D-GlcNAc-Bzl (β3Gal-T5 [2]): (0.0) | β3Gal-T5 activity with glycoprotein acceptor (β3Gal-T5 [2]): 0.0 mmol/min

Molecule: Bovine submaxillary mucin
β3Gal-T1 ratio glycoprotein / β-D-GlcNAc-Bzl (β3Gal-T1): (0.0) | β3Gal-T1 activity with glycoprotein acceptor (β3Gal-T1): 0.0 mmol/min | β3Gal-T2 ratio glycoprotein / β-D-GlcNAc-Bzl (β3Gal-T2): (0.0) | β3Gal-T2 activity with glycoprotein acceptor (β3Gal-T2): 0.0 mmol/min | β3Gal-T5 ratio glycoprotein / β-D-GlcNAc-Bzl (β3Gal-T5 [2]): (0.4) | β3Gal-T5 activity with glycoprotein acceptor (β3Gal-T5 [2]): 0.04 mmol/min
